From patent US20230399393A1, “METHODS TO EXTEND HEALTH-SPAN AND TREAT AGE-RELATED DISEASES” (National University of Singapore, priority 2020, published 2023)

T1: Mouse IL-11 protein in tissue lysates of C57Bl/6J mice (mouse, UniProt P47873 22-199, limits assumed)
T1 sequence (looked up): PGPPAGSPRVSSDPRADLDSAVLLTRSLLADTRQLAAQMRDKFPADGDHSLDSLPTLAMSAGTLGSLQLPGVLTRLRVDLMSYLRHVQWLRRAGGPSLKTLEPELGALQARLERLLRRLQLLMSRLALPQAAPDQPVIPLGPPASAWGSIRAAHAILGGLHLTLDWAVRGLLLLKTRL


Experiments:
IL-11 signalling = settings: binds IL-11Rα, engagement of gp130 homodimer fails; cited from earlier work
[1] = target: T1, Mouse IL-11 protein in tissue lysates …; experiment: western blot of mouse liver lysates (SDS-PAGE, PVDF), X203 as primary antibody, anti-mouse HRP and ECL detection
Method: Briefly, livers were harvested from mice and homogenized in radioimmunoprecipitation assay (RIPA) lysis and Extraction Buffer (ThermoFisher Scientific) containing protease and phosphatase inhibitors (Roche), followed by centrifugation to clear the lysate. Protein concentrations were determined by Bradford assay (Bio-Rad). Equal amounts of protein lysates were separated by SDS-PAGE, transferred to PVDF membranes, blocked for 1 h with 3% BSA, and incubated overnight with X203 (1:2000) or anti-GAPDH (1:1000, CST). Protein bands were visualized using the ECL detection system (Pierce) with the appropriate secondary antibodies: anti-mouse HRP and anti-rabbit HRP (1:5000, CST). […]

binding result [1]	Molecule	blockade of IL-11 signalling (IL-11 signalling)
–	W147A: IL-11 antagonist in which amino acid 147 is mutated from a tryptophan to an alanine (protein, UniProt P20809 22-199, looked up, variant W147A) Interleukin-11: PGPPPGPPRVSPDPRAELDSTVLLTRSLLADTRQLAAQLRDKFPADGDHNLDSLPTLAMSAGALGALQLPGVLTRLRADLLSYLRHVQWLRRAGGSSLKTLEPELGTLQARLDRLLRRLQLLMSRLALPQPPPDPPAPPLAPPSSAAGGIRAAHAILGGLHLTLDWAVRGLLLLKTRL	efficient blockade
binds	X203, mouse anti-mouse IL-11 IgG (anti-IL-11 antagonist antibody) (antibody, V domains shown, also called Enx203; anti-IL11 (X203)) VH: EVQLQQSGPELVKPGASVKIPCKASGYTFTDYNMDWVKQSHGKSLEWIGDINPHNGGPIYNQKFTGKATLTVDKSSSTAYMELRSLTSEDTAVYYCARGELGHWYFDVWGTGTTVTVSS VL: DIVLTQSPASLAVSLGQRATISCRASKSVSTSGYSYIHWYQQKPGQPPKLLIYLASNLDSGVPARFSGSGSGTDFTLNIHPVEEEDAATYYCQHSRDLPPTFGGGTKLEIK	–
